Results from patent US7282556B2, “Polynucleotides and polypeptides relating to the modulation of SIRPα-CD47” (Emory University, priority 2001, dated 2007).

Biological target: T1, CD47-SIRPα1 binding (CD47-AP / SIRPα1-GST) (Homo sapiens, UniProt P78324)
T1 construct: Microtiter plates were coated with SIRPα1 extracellular domain fusion protein (SIRPα1-GST, 1 μg/ml) for 2 hr; A construct consisting of the extracellular domain of human CD47 fused to the catalytic domain of human placental AP; made in house
T1 sequence (P78324 31-373 limits assumed): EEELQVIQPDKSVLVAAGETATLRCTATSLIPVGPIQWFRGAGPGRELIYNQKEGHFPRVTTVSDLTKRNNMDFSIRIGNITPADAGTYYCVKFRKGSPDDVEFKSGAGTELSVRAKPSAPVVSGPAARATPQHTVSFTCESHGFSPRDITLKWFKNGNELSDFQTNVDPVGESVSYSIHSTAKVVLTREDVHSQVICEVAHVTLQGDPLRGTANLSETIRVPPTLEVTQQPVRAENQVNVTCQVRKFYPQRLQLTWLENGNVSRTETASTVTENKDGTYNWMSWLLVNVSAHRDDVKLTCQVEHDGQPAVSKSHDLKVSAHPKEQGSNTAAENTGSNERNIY
Test: CD47-AP binding to immobilized SIRPα1-GST (alkaline phosphatase activity)
Conditions: SIRPα-GST coated 2 μg/ml, CD47-AP 1-2 μg/ml
Experimental: FIG. 2C (right panel) is a bar graph that illustrates CD47-AP specifically binds to SIRPα-GST fusion protein but not SIRPβ-GST. In this panel, microtiter plates were coated with either SIRPα-GST or highly similar SIRPβ-GST (10 μg/ml) followed by blocking with BSA. To each well was then added recombinant CD47-AP followed by washing. Bound CD47-AP was then detected by assay for alkaline phosphatase after addition of appropriate substrate.
FIGS. 6A-6C are graphs that illustrate the effects of synthetic peptides on CD47-SIRPα binding. FIG. 6A illustrates the effect of peptide C5/D5.1 on CD47-SIRPα binding. […] After blocking, CD47-AP was added in the absence or presence of synthetic peptides C5/D5.1 and control peptides C5/D5.4, C5/D5.11 and C5/D5.12 (used as 1 mM each). “*” p<0.01. CD47-AP binding was then detected by assay of alkaline phosphatase activity and normalized with respect to binding in the absence of any peptide (CD47-AP only). FIG. 6B illustrates the effect of dose-dependent inhibition of CD47-SIRPα1 binding by peptide C5/D5.1 performed as in FIG. 6A but with increasing concentrations of peptide as indicated. […] Binding of these proteins were detected by a goat anti-GST antibody followed by peroxidase conjugated anti-goat secondary (for detecting SIRPα1-GST) or directly developed for alkaline phosphatase activity (for detecting CD47-AP). […]

binding of AP fusion protein to SIRPα-GST (AP activity, OD405): absence of binding
B1: JAM-AP: control AP fusion protein containing the extracellular domain of junction adhesion molecule (protein)
chain: SVTVHSSEPEVRIPENNPVKLSCAYSGFSSPRVEWKFDQGDTTRLVCYNNKITASYEDRVTFLPTGITFKSVTREDTGTYTCMVSEEGGNSYGEVKVKLIVLVPPSKPTVNIPSSATIGNRAVLTCSEQDGSPPSEYTWFKDGIVMPTNPKSTRAFSNSSYVLNPTTGELVFDPLSASDTGEYSCEARNGYGTPMTSNAVRMEAVERNVGV
modifications: left off: large carriers
notes: control AP fusion protein containing the extracellular domain of junction adhesion molecule
